Test results: PMC6126186

Molecular target: exonuclease domain from the DNA repair protein WRN
Experiment: SEC-MALS; protein concentrated (10x and 20x) in a mixture of 50 mM phosphate and 1% sucrose; A280 and MALS across the elution peak

exonuclease domain from the DNA repair protein WRN, sequence (Q14191 2-1432): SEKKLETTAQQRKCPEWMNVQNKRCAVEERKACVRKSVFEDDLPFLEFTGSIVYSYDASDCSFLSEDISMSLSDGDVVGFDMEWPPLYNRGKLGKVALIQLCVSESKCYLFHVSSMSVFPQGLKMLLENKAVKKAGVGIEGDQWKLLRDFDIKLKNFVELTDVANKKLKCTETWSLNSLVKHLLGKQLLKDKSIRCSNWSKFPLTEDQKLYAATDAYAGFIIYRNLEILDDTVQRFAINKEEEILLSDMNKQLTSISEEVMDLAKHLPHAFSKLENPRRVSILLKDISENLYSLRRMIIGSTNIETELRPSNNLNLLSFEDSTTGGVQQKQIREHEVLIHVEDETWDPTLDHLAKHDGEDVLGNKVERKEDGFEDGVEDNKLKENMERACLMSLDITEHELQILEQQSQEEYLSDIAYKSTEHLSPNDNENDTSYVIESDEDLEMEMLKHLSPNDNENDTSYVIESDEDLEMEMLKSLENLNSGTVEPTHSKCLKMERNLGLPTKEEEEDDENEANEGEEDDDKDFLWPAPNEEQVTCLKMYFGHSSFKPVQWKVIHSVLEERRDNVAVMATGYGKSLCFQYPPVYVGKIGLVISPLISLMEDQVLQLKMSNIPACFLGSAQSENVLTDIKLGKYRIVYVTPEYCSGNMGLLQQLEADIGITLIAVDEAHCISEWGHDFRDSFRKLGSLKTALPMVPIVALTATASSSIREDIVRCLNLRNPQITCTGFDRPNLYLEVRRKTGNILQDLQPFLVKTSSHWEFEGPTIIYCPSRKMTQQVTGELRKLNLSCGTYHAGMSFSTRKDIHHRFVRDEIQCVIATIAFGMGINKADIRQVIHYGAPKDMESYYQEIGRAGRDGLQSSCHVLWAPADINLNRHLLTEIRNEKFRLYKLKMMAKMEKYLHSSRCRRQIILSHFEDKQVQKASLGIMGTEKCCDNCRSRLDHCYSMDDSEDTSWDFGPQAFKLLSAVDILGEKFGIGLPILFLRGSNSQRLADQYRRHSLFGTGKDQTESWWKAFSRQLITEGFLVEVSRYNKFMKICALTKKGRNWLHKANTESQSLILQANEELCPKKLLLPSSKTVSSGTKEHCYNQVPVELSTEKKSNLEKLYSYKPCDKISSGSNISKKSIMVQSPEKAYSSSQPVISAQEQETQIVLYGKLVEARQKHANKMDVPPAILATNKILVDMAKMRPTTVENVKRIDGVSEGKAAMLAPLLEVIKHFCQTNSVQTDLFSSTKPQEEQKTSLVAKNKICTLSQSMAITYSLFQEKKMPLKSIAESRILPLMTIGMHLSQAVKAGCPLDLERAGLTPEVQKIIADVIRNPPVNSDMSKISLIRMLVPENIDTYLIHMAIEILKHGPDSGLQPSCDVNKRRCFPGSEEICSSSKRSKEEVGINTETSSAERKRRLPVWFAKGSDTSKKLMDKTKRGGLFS

exonuclease domain from the DNA repair protein WRN (domain or fragment)
stoichiometry N: 2
